Kd data for 18 molecules are collected here from patent US20080219971A1 (VACCINEX, published 2008).

Assay [1] deals with T1, Human CD100 (human, UniProt Q92854 22-734, limits assumed).
T1 construct: also called SEMA4D; Hu CD100
T1 sequence (looked up): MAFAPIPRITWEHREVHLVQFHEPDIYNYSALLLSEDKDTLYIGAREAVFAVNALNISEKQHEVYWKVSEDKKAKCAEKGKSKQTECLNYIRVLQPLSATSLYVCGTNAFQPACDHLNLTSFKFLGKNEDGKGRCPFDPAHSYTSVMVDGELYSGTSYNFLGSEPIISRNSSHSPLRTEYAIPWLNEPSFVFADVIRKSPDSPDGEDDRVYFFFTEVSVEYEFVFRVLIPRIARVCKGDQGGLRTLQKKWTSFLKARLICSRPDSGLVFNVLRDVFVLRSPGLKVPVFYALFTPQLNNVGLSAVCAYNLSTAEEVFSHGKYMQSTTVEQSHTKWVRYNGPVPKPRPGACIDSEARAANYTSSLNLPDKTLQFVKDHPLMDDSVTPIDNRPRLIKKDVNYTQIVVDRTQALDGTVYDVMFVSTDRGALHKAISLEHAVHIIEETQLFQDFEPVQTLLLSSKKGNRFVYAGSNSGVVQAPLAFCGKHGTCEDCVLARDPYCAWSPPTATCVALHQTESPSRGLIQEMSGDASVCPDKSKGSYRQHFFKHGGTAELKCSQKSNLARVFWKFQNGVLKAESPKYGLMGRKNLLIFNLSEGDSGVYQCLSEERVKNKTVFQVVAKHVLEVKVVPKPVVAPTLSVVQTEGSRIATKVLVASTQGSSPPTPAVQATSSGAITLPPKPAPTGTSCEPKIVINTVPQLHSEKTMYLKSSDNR
The assay can be described thus: affinity testing, method and unit not printed in Example 10 (nM as in Table 3); mutant value, before the parentheses.

Assay [2] addresses T1, Human CD100. The assay can be described thus: affinity testing, method and unit not printed in Example 10 (nM as in Table 3).

Broadly, the Kd is the concentration at which binding is half-saturated.

B1: MAb 2117 (antibody, V domains shown)
VH: QVQLVQSGAEVKKPGSSVKVSCKASGYTFTDYYMDWVRQAPGQGLEWMGRVNPYHGGATYNQKFKGRVTITADKSTSTAYMELSSLRSEDTAVYYCAREENSYTGYYGMDYWGQGTLVTVSS
VL: DIVMTQSPLSLPVSPGEPATINCKSSQSLFNSGNQKNYLAWYLQKPGQPPKLLIYGASTRESGVPDRFSGSGSGTDFTLTISSLQAEDVAVYYCQNDHTYPYTFGQGTKLEIK
notes: H1651 mutant VH combined with L284; also called H1651 D104T with L284
In the case of B1, the Kd in the assay with Human CD100 [1] stood at 0.52 nM.

B2: MAb 2275 (antibody, V domains shown)
VH: QVQLVASGAEVKKPGSSVKVSCKASGYTFTDYYMDWVRQAPGQGLEWMGRVNPYHGFATYNQKFKGRVTITADKSTSTAYMELSSLRSEDTAVYYCAREENSYDGYYGMDYWGQGTLVTVSS
VL: DIVMTQSPLSLPVSPGEPATINCKSSQSLFNSGNQKNYLAWYLQKPGQPPKLLIYGASTRESGVPDRFSGSGSGTDFTLTISSLQAEDVAVYYCQNDHTYPYTFGQGTKLEIK
notes: Double mutant of H1651 with L284; also called H1651 Q6A G57F with L284
For the molecule B2, the Kd with Human CD100 [2] came to 0.09 nM.

B3: MAb 2277 (antibody, V domains shown)
VH: QVQLVASGAEVKKPGSSVKVSCKASGYTFTDYYMDWVRQAPGQGLEWMGRVNPYHGGAFYNQKFKGRVTITADKSTSTAYMELSSLRSEDTAVYYCAREENSYDGYYGMDYWGQGTLVTVSS
VL: DIVMTQSPLSLPVSPGEPATINCKSSQSLFNSGNQKNYLAWYLQKPGQPPKLLIYGASTRESGVPDRFSGSGSGTDFTLTISSLQAEDVAVYYCQNDHTYPYTFGQGTKLEIK
notes: Double mutant of H1651 with L284; also called H1651 Q6A T59F with L284
In the assay with Human CD100 [2], B3 yielded a Kd of 0.09 nM.

B4: MAb 2280 (antibody, V domains shown)
VH: QVQLVQSGAEVKKPGSSVKVSCTASGYTFTKYYMDWVRQAPGQGLEWMGRVNPYHGGATYNQKFKGRVTITADKSTSTAYMELSSLRSEDTAVYYCAREENSYDGYYGMDYWGQGTLVTVSS
VL: DIVMTQSPLSLPVSPGEPATINCKSSQSLFNSGNQKNYLAWYLQKPGQPPKLLIYGASTRESGVPDRFSGSGSGTDFTLTISSLQAEDVAVYYCQNDHTYPYTFGQGTKLEIK
notes: Double mutant of H1651 with L284; also called H1651 K23T D31K with L284
The molecule B4 returned a Kd with Human CD100 [2] of 0.13 nM.

B5: MAb 2283 (antibody, V domains shown)
VH: QVQLVQSGAEVKKPGSSVKVSCTASGYTFTDYYMDWVRQAPGQGLEWMGRVNPYHGGAFYNQKFKGRVTITADKSTSTAYMELSSLRSEDTAVYYCAREENSYDGYYGMDYWGQGTLVTVSS
VL: DIVMTQSPLSLPVSPGEPATINCKSSQSLFNSGNQKNYLAWYLQKPGQPPKLLIYGASTRESGVPDRFSGSGSGTDFTLTISSLQAEDVAVYYCQNDHTYPYTFGQGTKLEIK
notes: Double mutant of H1651 with L284; also called H1651 K23T T59F with L284
The molecule B5 returned a Kd in the assay with Human CD100 [2] of 0.13 nM.

B6: MAb 2281 (antibody, V domains shown)
VH: QVQLVQSGAEVKKPGSSVKVSCTASGYTFTDYYMDWVRQAPGQGLEWMGRVNPYHGFATYNQKFKGRVTITADKSTSTAYMELSSLRSEDTAVYYCAREENSYDGYYGMDYWGQGTLVTVSS
VL: DIVMTQSPLSLPVSPGEPATINCKSSQSLFNSGNQKNYLAWYLQKPGQPPKLLIYGASTRESGVPDRFSGSGSGTDFTLTISSLQAEDVAVYYCQNDHTYPYTFGQGTKLEIK
notes: Double mutant of H1651 with L284; also called H1651 K23T G57F with L284
In the assay with Human CD100 [2], B6 gave a Kd of 0.09 nM.

B7: MAb 2144 (antibody, V domains shown)
VH: QVQLVASGAEVKKPGSSVKVSCKASGYTFTDYYMDWVRQAPGQGLEWMGRVNPYHGGATYNQKFKGRVTITADKSTSTAYMELSSLRSEDTAVYYCAREENSYDGYYGMDYWGQGTLVTVSS
VL: DIVMTQSPLSLPVSPGEPATINCKSSQSLFNSGNQKNYLAWYLQKPGQPPKLLIYGASTRESGVPDRFSGSGSGTDFTLTISSLQAEDVAVYYCQNDHTYPYTFGQGTKLEIK
notes: H1651 mutant VH combined with L284; also called H1651 Q6A with L284
As to B7, the Kd in the assay with Human CD100 [1] is 0.43 nM.

B8: MAb 2285 (antibody, V domains shown)
VH: QVQLVQSGAEVKKPGSSVKVSCTASGYTFTDYYMDWVRQAPGQGLEWMGRVNPYHGGATVNQKFKGRVTITADKSTSTAYMELSSLRSEDTAVYYCAREENSYDGYYGMDYWGQGTLVTVSS
VL: DIVMTQSPLSLPVSPGEPATINCKSSQSLFNSGNQKNYLAWYLQKPGQPPKLLIYGASTRESGVPDRFSGSGSGTDFTLTISSLQAEDVAVYYCQNDHTYPYTFGQGTKLEIK
notes: Double mutant of H1651 with L284; also called H1651 K23T Y60V with L284
B8: the affinity in the assay with Human CD100 [2], expressed as Kd, was 0.1 nM.

B9: MAb 2279 (antibody, V domains shown)
VH: QVQLVASGAEVKKPGSSVKVSCKASGYTFTDYYMDWVRQAPGQGLEWMGRVNPYHGGATVNQKFKGRVTITADKSTSTAYMELSSLRSEDTAVYYCAREENSYDGYYGMDYWGQGTLVTVSS
VL: DIVMTQSPLSLPVSPGEPATINCKSSQSLFNSGNQKNYLAWYLQKPGQPPKLLIYGASTRESGVPDRFSGSGSGTDFTLTISSLQAEDVAVYYCQNDHTYPYTFGQGTKLEIK
notes: Double mutant of H1651 with L284; also called H1651 Q6A Y60V with L284
B9 had a Kd with Human CD100 [2] of 0.14 nM.

B10: MAb 2278 (antibody, V domains shown)
VH: QVQLVASGAEVKKPGSSVKVSCKASGYTFTDYYMDWVRQAPGQGLEWMGRVNPYHGGATFNQKFKGRVTITADKSTSTAYMELSSLRSEDTAVYYCAREENSYDGYYGMDYWGQGTLVTVSS
VL: DIVMTQSPLSLPVSPGEPATINCKSSQSLFNSGNQKNYLAWYLQKPGQPPKLLIYGASTRESGVPDRFSGSGSGTDFTLTISSLQAEDVAVYYCQNDHTYPYTFGQGTKLEIK
notes: Double mutant of H1651 with L284; also called H1651 Q6A Y60F with L284
B10 came in with a Kd in the assay with Human CD100 [2] of 0.11 nM.

B11: MAb 2202 (antibody, V domains shown)
VH: QVQLVQSGAEVKKPGSSVKVSCKASGYTFTDYYMDWVRQAPGQGLEWMGRVNPYHGFATYNQKFKGRVTITADKSTSTAYMELSSLRSEDTAVYYCAREENSYDGYYGMDYWGQGTLVTVSS
VL: DIVMTQSPLSLPVSPGEPATINCKSSQSLFNSGNQKNYLAWYLQKPGQPPKLLIYGASTRESGVPDRFSGSGSGTDFTLTISSLQAEDVAVYYCQNDHTYPYTFGQGTKLEIK
notes: H1651 mutant VH combined with L284; also called H1651 G57F with L284
For B11, in the assay with Human CD100 [1], the Kd stood at 0.06 nM.

B12: MAb 2282 (antibody, V domains shown)
VH: QVQLVQSGAEVKKPGSSVKVSCTASGYTFTDYYMDWVRQAPGQGLEWMGRVNPYHGYATYNQKFKGRVTITADKSTSTAYMELSSLRSEDTAVYYCAREENSYDGYYGMDYWGQGTLVTVSS
VL: DIVMTQSPLSLPVSPGEPATINCKSSQSLFNSGNQKNYLAWYLQKPGQPPKLLIYGASTRESGVPDRFSGSGSGTDFTLTISSLQAEDVAVYYCQNDHTYPYTFGQGTKLEIK
notes: Double mutant of H1651 with L284; also called H1651 K23T G57Y with L284
Regarding B12, in the assay with Human CD100 [2], the Kd was 0.09 nM.

B13: MAb 2284 (antibody, V domains shown)
VH: QVQLVQSGAEVKKPGSSVKVSCTASGYTFTDYYMDWVRQAPGQGLEWMGRVNPYHGGATFNQKFKGRVTITADKSTSTAYMELSSLRSEDTAVYYCAREENSYDGYYGMDYWGQGTLVTVSS
VL: DIVMTQSPLSLPVSPGEPATINCKSSQSLFNSGNQKNYLAWYLQKPGQPPKLLIYGASTRESGVPDRFSGSGSGTDFTLTISSLQAEDVAVYYCQNDHTYPYTFGQGTKLEIK
notes: Double mutant of H1651 with L284; also called H1651 K23T Y60F with L284
As for B13, the Kd with Human CD100 [2] is 0.24 nM.

B14: MAb 2274 (antibody, V domains shown)
VH: QVQLVASGAEVKKPGSSVKVSCKASGYTFTKYYMDWVRQAPGQGLEWMGRVNPYHGGATYNQKFKGRVTITADKSTSTAYMELSSLRSEDTAVYYCAREENSYDGYYGMDYWGQGTLVTVSS
VL: DIVMTQSPLSLPVSPGEPATINCKSSQSLFNSGNQKNYLAWYLQKPGQPPKLLIYGASTRESGVPDRFSGSGSGTDFTLTISSLQAEDVAVYYCQNDHTYPYTFGQGTKLEIK
notes: Double mutant of H1651 with L284; also called H1651 Q6A D31K with L284
For B14, the Kd with Human CD100 [2] worked out at 0.1 nM.

B15: MAb 2125 (antibody, V domains shown)
VH: QVQLVQSGAEVKKPGSSVKVSCKASGYTFTDYYMDWVRQAPGQGLEWMGRVNPYHGGATYNQKFKGRVTITADKSTSTAYMELSSLRSEDTAVYYCAREDNSYDGYYGMDYWGQGTLVTVSS
VL: DIVMTQSPLSLPVSPGEPATINCKSSQSLFNSGNQKNYLAWYLQKPGQPPKLLIYGASTRESGVPDRFSGSGSGTDFTLTISSLQAEDVAVYYCQNDHTYPYTFGQGTKLEIK
notes: H1651 mutant VH combined with L284; also called H1651 E100D with L284
In the case of B15, in the assay with Human CD100 [1], the Kd was found to be 0.66 nM.

B16: MAb 2276 (antibody, V domains shown)
VH: QVQLVASGAEVKKPGSSVKVSCKASGYTFTDYYMDWVRQAPGQGLEWMGRVNPYHGYATYNQKFKGRVTITADKSTSTAYMELSSLRSEDTAVYYCAREENSYDGYYGMDYWGQGTLVTVSS
VL: DIVMTQSPLSLPVSPGEPATINCKSSQSLFNSGNQKNYLAWYLQKPGQPPKLLIYGASTRESGVPDRFSGSGSGTDFTLTISSLQAEDVAVYYCQNDHTYPYTFGQGTKLEIK
notes: Double mutant of H1651 with L284; also called H1651 Q6A G57Y with L284
B16 displayed a Kd in the assay with Human CD100 [2] of 0.09 nM.

B17: MAb 2163 (antibody, V domains shown)
VH: QVQLVQSGAEVKKPGSSVKVSCKASGYTFTKYYMDWVRQAPGQGLEWMGRVNPYHGGATYNQKFKGRVTITADKSTSTAYMELSSLRSEDTAVYYCAREENSYDGYYGMDYWGQGTLVTVSS
VL: DIVMTQSPLSLPVSPGEPATINCKSSQSLFNSGNQKNYLAWYLQKPGQPPKLLIYGASTRESGVPDRFSGSGSGTDFTLTISSLQAEDVAVYYCQNDHTYPYTFGQGTKLEIK
notes: H1651 mutant VH combined with L284; also called H1651 D31K with L284
B17: the Kd with Human CD100 [1] is 0.06 nM.

B18: MAb 2139 (antibody, V domains shown)
VH: QVQLVQSGAEVKKPGSSVKVSCTASGYTFTDYYMDWVRQAPGQGLEWMGRVNPYHGGATYNQKFKGRVTITADKSTSTAYMELSSLRSEDTAVYYCAREENSYDGYYGMDYWGQGTLVTVSS
VL: DIVMTQSPLSLPVSPGEPATINCKSSQSLFNSGNQKNYLAWYLQKPGQPPKLLIYGASTRESGVPDRFSGSGSGTDFTLTISSLQAEDVAVYYCQNDHTYPYTFGQGTKLEIK
notes: H1651 mutant VH combined with L284; also called H1651 K23T with L284
With B18, the Kd with Human CD100 [1] came out at 0.61 nM.
